{
  "source": "patent US9408922B2",
  "about": "“Anti-tofacitinib antibodies and uses thereof for drug monitoring” (Pfizer Inc., priority 2012, dated 2016)",
  "molecules": {"B1": {"name": "12D4.G6: mouse monoclonal anti-tofacitinib antibody; VH SEQ ID NO:12, VL SEQ ID NO:4 (antibody, listed as Mus musculus, V domains shown)", "VH": "QVQLKESGPGLVAPSQSLSITCTVSGFSLSIYSVHWVRQPPGKGLEWLGMIWGGGNTDYNSVLKSRLSISKDNSKSQVFLKVNSLQTDDTAMYYCARIYYGIFWGQGTLVTVSA", "VL": "NIVMTQSPKSMSMSVGERVTLTCKASENVVTYVSWYQQKPEQSPKLLIYGASNRYTGVPDRFTGSGSATDFTLTISSVQAEDLADYHCGQGYSYPYTFGGGTKLEIKR"}, "B2": {"name": "6D9.A5: mouse monoclonal anti-tofacitinib antibody; VH SEQ ID NO:7, VL SEQ ID NO:4; replacement subclone for 6D9.A8 (antibody, listed as Mus musculus, V domains shown)", "VH": "B1 VH with Q16E, S19T, I31R, V34I, N56S, S68T, S70R, N73Y, V82M, F103Y", "VL": "B1 VL", "notes": "mouse monoclonal anti-tofacitinib antibody; replacement subclone for 6D9.A8"}, "B3": {"name": "12H4.G2: mouse monoclonal anti-tofacitinib antibody; VH SEQ ID NO:8, VL SEQ ID NO:9 (antibody, listed as Mus musculus, V domains shown)", "VH": "DVQLQGSGPDLVKPSQSLSLTCTVTGYSITSGYSWNWIRQFPGNTLEWMGFIHYSGSTNYNPSLKSRISITRDTSKNQFFLQLNSVTTEDTATYYCVRGPYGSSFYWGQGTTLTVSS", "VL": "QAVVTQESALTTSPGETVTLTCRSSTGAVTTSNYATWVQEKPDHLFTGLIGGTNNRAPGVPARFSGSLIGDKAALTLTGAQTEDEAIYFCALWYSNHWVFGGGTKLTVL"}, "B4": {"name": "16F10.E6: mouse monoclonal anti-tofacitinib antibody; VH SEQ ID NO:10, VL SEQ ID NO:11 (antibody, listed as Mus musculus, V domains shown)", "VH": "B3 VH with V2M, G6E, F51Y, S57N, N59V, I68L", "VL": "DIVMTQSQKFMSTSVGDRVSVTCKASQNVGTNVAWYQQKPGQSPKALIYSASYRYSGVPDRFTGSGSGTDFTLTISNVQSEDLAEYFCQQYYNYPLTFGAGTKLELKR"}, "B5": {"name": "10F10.H5: mouse monoclonal anti-tofacitinib antibody; VH SEQ ID NO:5, VL SEQ ID NO:6 (antibody, listed as Mus musculus, V domains shown)", "VH": "B3 VH with G6E, F51Y, S57T, T88A, V97A, T114A", "VL": "QIVLTQSPAIMSASPGEKVTVTCSASSSVSSMHWFQQKPGTSPKLWIYSTSNLASGVPTRFSGSGSGTSYSLTISRMEAEDVATYYCQQRNNYPYTFGGGTKLEIKR"}, "B6": {"name": "5A3.E5: mouse monoclonal anti-tofacitinib antibody; VH SEQ ID NO:1, VL SEQ ID NO:2 (antibody, listed as Mus musculus, V domains shown)", "VH": "EVKLVESGGGLVQPGGSLRLSCATSGFTFNDYYMTWVRQPPGKALEWLGFIRNKADGYTPYYSPSVKGRFTISRDNSQSILYLQMNTLRTEDSATYYCARPHYYGFPFGYWGQGTLVTVSA", "VL": "B3 VL with S32N, T36N, N55S, L77I, I87M"}, "B7": {"name": "10A6.C5: mouse monoclonal anti-tofacitinib antibody; VH SEQ ID NO:3, VL SEQ ID NO:4 (antibody, listed as Mus musculus, V domains shown)", "VH": "B3 VH with G6E, F51Y", "VL": "B1 VL"}},
  "assay_type_in_all_cases": "binding",
  "key": {"[1]": {"test": "Competitive immunoassay-3 with Metabolite 1 as competitor (Example 7)", "settings": "for 4-P Fit parameter C, Concentration vs % B/B0: Metabolite 1 as competitor, biotinylated tofacitinib 1 ng/ml; for cross reactivity to metabolite 1 (in words, FIG. 3): competitive immunoassay", "protocol": "(§1) After washing the plates, 200 μl of streptavidin-HRP (50 ng/ml) was added and the plates were then incubated for 0.5-1 hour at room temperature. After washing the plates again, 200 μl of TMB (3,3′,5,5′-Tetramethylbenzidine) substrate was added, then color developed for 30 minutes, and the reaction was stopped by adding 50 μl 2 N sulfuric acid. Absorbance at 450 nm was measured.\nFor this example, eleven anti-tofacitinib monoclonal antibodies were screened for cross reactivity with metabolite 1 using competitive immunoassay. […] After washing the plates, 200 μl of streptavidin-HRP (50 ng/ml) was added and then incubated for 0.5-1 hour at room temperature. After washing the plates again, 200 μl of TMB substrate was added, then developed for 30 minutes, and stopped by adding 50 μl 2 N sulfuric acid. Absorbance at 450 nm was measured."}, "[2]": {"test": "Antigen competition immunoassay, unlabeled tofacitinib vs biotinylated tofacitinib (Example 8)", "protocol": "as §1, with “and” for “and the plates were”, “TMB” for “TMB (3,3′,5,5′-Tetramethylbenzidine)”, “then” for “then color”, “and” for “and the reaction was”, “2N” for “2 N”"}, "[3]": {"test": "Cross reactivity competitive ELISA with Metabolite 1 (Example 9)", "settings": "metabolite 200,000 to 200 ng/ml; antibody at EC50 dilution", "protocol": "(§2) Two clones, 6D9.A8 and 12D4.G6, were tested for cross reactivity to metabolites 1 and 2. In this experiment, the metabolites were prepared at concentrations of 200,000 to 200 ng/ml and the antibody clones were prepared at their EC50 dilutions shown in Table 1."}, "[4]": {"test": "Cross reactivity competitive ELISA with Metabolite 2 (Example 9)", "settings": "metabolite 200,000 to 200 ng/ml; antibody at EC50 dilution", "protocol": "as §2"}, "[5]": {"test": "Antigen ED50 in cross reactivity experiment (Example 9)", "settings": "antibody at EC50 dilution; biotinylated tofacitinib 1 ng/mL", "protocol": "as §2"}, "[6]": {"test": "Standard curve with tofacitinib, ELISA (Example 10)", "settings": "biotinylated tofacitinib 1 ng/ml", "source_text": "FIG. 4 is a graph depicting optimal dilution ranges of select monoclonal antibodies of the invention, e.g., 6D9.A8 (open circles) and 12D4.G6 (open squares) as determined by ELISA."}, "[7]": {"test": "Tofacitinib dose response curves with antibody clones (Example 12)", "settings": "for Antigen ED50: Table 10; for Tofacitinib ED50: tofacitinib 0.001 to 1000 ng/ml, antibody dilution 1:25,600 (6D9.A5), 1:4,000 (6D9.A8), 1:22,000 (12D4.G6); for 4-P Fit parameter C, Concentration vs % B/B0: tofacitinib standard curve", "source_text": "Further, the data used to generate the graph shown in FIG. 5 are set forth below in Table 9."}, "[8]": {"test": "Cross reactivity to Metabolite 1, competitive immunoassay-3 or direct ELISA (Example 12)", "settings": "for Metabolite 1 Cross reactivity: Table 10", "protocol": "as §1"}, "[9]": {"test": "Cross reactivity to Metabolite 2, competitive immunoassay-3 or direct ELISA (Example 12)", "settings": "for Metabolite 2 Cross reactivity: Table 10", "protocol": "as §1"}, "[10]": {"settings": "unlabeled tofacitinib 1000 to 0.001 ng/ml, antibody at EC50 dilution"}},
  "note": "Substitutions are numbered along the chain they refer to.",
  "data": [
    {"molecule": "B1", "values": [
      {"measurement": "4-P Fit parameter C, Concentration vs % B/B0", "setting": "[1]", "value": "2.14 × 10^7"},
      {"measurement": "cross reactivity to metabolite 1 (in words, FIG. 3)", "setting": "[1]", "value": "did not detectably bind metabolite 1"},
      {"measurement": "competition by unlabeled tofacitinib for binding to biotinylated tofacitinib (in words)", "setting": "[2]", "value": "competition was seen"},
      {"measurement": "ED20", "setting": "[2]; [10]", "value": 0.457, "unit": "µg/mL"},
      {"measurement": "ED50", "setting": "[2]; [10]", "value": 0.104, "unit": "µg/mL"},
      {"measurement": "ED80", "setting": "[2]; [10]", "value": 0.024, "unit": "µg/mL"},
      {"measurement": "Metabolite-1 Cross reactivity", "setting": "[3]", "value": 4.17, "unit": "%"},
      {"measurement": "Metabolite-2 Cross reactivity", "setting": "[4]", "value": 0.15, "unit": "%"},
      {"measurement": "Antigen ED50", "setting": "[5]", "value": 0.152, "unit": "µg/mL"},
      {"measurement": "4-P Fit parameter C", "setting": "[6]", "value": 109},
      {"measurement": "Antigen ED50", "setting": "[7]", "value": 118, "unit": "ng/mL"},
      {"measurement": "Tofacitinib ED50", "setting": "[7]", "value": 0.118, "unit": "µg/mL"},
      {"measurement": "4-P Fit parameter C, Concentration vs % B/B0", "setting": "[7]", "value": 108},
      {"measurement": "binding of metabolite 1 (in words)", "setting": "[8]", "value": "did not substantially bind"},
      {"measurement": "Metabolite 1 Cross reactivity", "setting": "[8]", "value": 4.17, "unit": "%"},
      {"measurement": "binding of metabolite 2 (in words)", "setting": "[9]", "value": "did not substantially bind"},
      {"measurement": "Metabolite 2 Cross reactivity", "setting": "[9]", "value": 0.15, "unit": "%"}
    ]},
    {"molecule": "B2", "values": [
      {"measurement": "cross reactivity to metabolite 1 (in words, FIG. 3)", "setting": "[1]", "value": "did not detectably bind metabolite 1"},
      {"measurement": "binding of the parent drug, potency compared with antibody 12D4.G6 (in words)", "setting": "[7]", "value": "more potent binders of the parent drug"},
      {"measurement": "Antigen ED50", "setting": "[7]", "value": 244, "unit": "ng/ml ng/mL"},
      {"measurement": "Tofacitinib ED50", "setting": "[7]", "value": 0.244, "unit": "µg/mL"},
      {"measurement": "4-P Fit parameter C, Concentration vs % B/B0", "setting": "[7]", "value": 224},
      {"measurement": "binding of metabolite 1 (in words)", "setting": "[8]", "value": "did not substantially bind"},
      {"measurement": "Metabolite 1 Cross reactivity", "setting": "[8]", "value": 4.47, "unit": "%"},
      {"measurement": "binding of metabolite 2 (in words)", "setting": "[9]", "value": "did not substantially bind"},
      {"measurement": "Metabolite 2 Cross reactivity", "setting": "[9]", "value": "<0.01", "unit": "%"}
    ]},
    {"molecule": "B3", "values": [
      {"measurement": "4-P Fit parameter C, Concentration vs % B/B0", "setting": "[1]", "value": 0.383},
      {"measurement": "cross reactivity to metabolite 1 (in words, FIG. 3)", "setting": "[1]", "value": "did not detectably bind metabolite 1"}
    ]},
    {"molecule": "B4", "values": [
      {"measurement": "cross reactivity to metabolite 1 (in words, FIG. 3)", "setting": "[1]", "value": "did not detectably bind metabolite 1"}
    ]},
    {"molecule": "B5", "values": [
      {"measurement": "4-P Fit parameter C, Concentration vs % B/B0", "setting": "[1]", "value": 0.345},
      {"measurement": "cross reactivity to metabolite 1 (in words, FIG. 3)", "setting": "[1]", "value": "did not detectably bind metabolite 1"}
    ]},
    {"molecule": "B6", "values": [
      {"measurement": "4-P Fit parameter C, Concentration vs % B/B0", "setting": "[1]", "value": 0.191},
      {"measurement": "cross reactivity to metabolite 1 (in words, FIG. 3)", "setting": "[1]", "value": "did not detectably bind metabolite 1"}
    ]},
    {"molecule": "B7", "values": [
      {"measurement": "4-P Fit parameter C, Concentration vs % B/B0", "setting": "[1]", "value": 0.389},
      {"measurement": "cross reactivity to metabolite 1 (in words, FIG. 3)", "setting": "[1]", "value": "did not detectably bind metabolite 1"}
    ]}
  ]
}
